According to the supplement of paper PMC9170038:

tested on: MS2 coat protein; experiment: apparent KD of MS2 coat protein; higher = weaker reporter binding; settings: Eterna round: R107; input ligand: arginine 13.2 mM
In short: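 Designed RNA switches were transcribed on-chip from Illumina sequencing clusters. They were then titrated with SNAP-549-labelled MS2 coat protein (twofold steps, 0.7 or 1.5 nM to 3 µM; 0.8–1.5 h to 10–20 min per step) in 100 mM Tris-HCl pH 7.5, 80 mM KCl, 4 mM MgCl2, without or with constant ligand. Apparent KD is the per-design median of normalised cluster binding-curve fits.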

Sequence | apparent KD of MS2 coat protein [nM]
UGUAUGGACUGAAGGAGCGGGAAAUAAACCUGAGGAACACCCAGGUAAUAGGCGAAAGCCACCCAGGUAGGUCGCAGUCCAUACU | 17.2
CCGGCCAGGGCGGCCGCCACUGAACGUGGAAGAAAGAAAACAUGAGGAUCACCCAUGUAAAUCCUCAGGACCGGGCCAGGGCCGG | 42.3
AUCCCGUGAGCGGCCGCCACUGGAGGCUUUGCGCGACAUGAGGAUCACCCAUGUGUGCCCGGCGUUAGGACCGGGUUCGCGUGGA [#1 Same State - Tryptophan B Attempt #17 (HarryS)] | 29.3
GCUUAGAAACCUGAUACCAGUCAGCCCUAUGACAUGAGGAUCACCCAUGUGAUACUCACGGACCCUUGGCAGCAGGGUCGAUUAC [theeternabot_sameState_MS2_Theo_B_17] | 231
UAUGAGCGCACGGCCGCCACUGUCUUCAUCUGUUUGUCUACAUGAGGAUCACCCAUGUUGGUUUACAGGACCGGGUGCAACUAUG [SSTryp B #10] | 26.9
GGCGUCGGGCGAAGGAGCGUGAAGACAUGAGGAUCACCCAUGUAGAGGCCCGGACAGGGUUCGCAGGUAGGUCGCGCGCGGUGCC [#1 Same State - Arginine B Attempt #7 (HarryS)] | 17.5
ACAUGAGGAUCACCCAUGUGUGUAAGUUCUCGAGGACCGGUACGGCCGCCACUCGAACGAGUGUAACGUUAUACUUAGUAUAAUG [SS Trp A s4] | 22.6
GUUGGUUUGCGAAGGAGCGGGUAUGUUUUCUACUGGAUCCUAACAUGAGGAUCACCCAUGUCCCAGGUAGGUCGCGCGGGCUUUG [12.aA] | 35.6
UUAAAUGUGACGGAUACCAGCGUGUUGUAGAACAUGAGGAUCACCCAUGUAGUGAUCAAGCGCCCUUGGCAGCUGGUAUGUUUGA [7.Z] | 227
GAGUAGAGGACGGCCGCCACUGAACAUGAGGAUCACCCAUGUCGUGAUCCGUUGCCUGAAGAAGAUAGGACCGGGUCAUGUGCUC [Exclusion Tryptophan B GF 20] | 40.4
GGACGAAGUUUCUUGUCCGGUCGCUGAGAAGGAGCGCGGUAAACCGCAGGUAGGUCGCUCAGAAAUACAUGAGGAUCACCCAUGU [Orsosous] | 17.1
UGAUCCUGCAGGGAUACCAGCGCCGCUAGAUAACUAUGCACAUGAGGAUCACCCAUGUAACGCCCUUGGCAGCCCAGCUAAAGGG [Same State Theophylline B GF22] | 23.1
AACGUAUACAGAAGGAGCGUGAAAUAAGUAAAUUAAUAAUAAACAUGAGGAUCACCCAUGUCACAGGUAGGUCGCUGUAUUCGUA [JR_ExcArginiB_Sub017] | 15.5
AUUGUGAAGUCGGCCGCCACUGGUUAGUUUAACCUCAUGUAACAUGAGGAUCACCCAUGUAAUGACAGGACCGGGACAAUAGUAA [JR_ExcTryptoB_Sub015] | 103
AGUCACAUGAGGAUCACCCAUGUGCCAGAACGAGGACCGGUACGGCCGCCACUCGAGGCGUCCGUCGACAAUAAUGUGAACUGCA [theeternabot_sameState_MS2_Trp_A_48] | 11.1
AGUCUUAUAGGAAGGAGCGCAAUCAUCACAUGAGGAUCACCCAUGUCAAGGUGAGAGUCAUUGCAGGUAGGUCGCCUAACUAAGA [Same State - Arginine B (Freestyle 9)] | 150
UCUUCGUUGGCGUCACAAUUCAUGCAAUGCCGAGGACCGGUACGGCCGCCACUCGGACUAAUACAUGAGGAUCACCCAUGUCGUG [theeternabot_exclusion_MS2_Trp_A_5] | 37.9
UGAACAUGAGGAUCACCCAUGUAGAGGGAAGGAGCGUCGAAGAAGACAGGUAGGUCGCCCAGAAAGAAAUCCUCAUGGAUAAGAA [Same State Arginine A GF2] | 86.2
CCUUACGUUGGGCAGCCAGUUCGAAGUGAUACCAGUCACAAAAGUGACCCUUGGCAGCACCGCACAUGAGGAUCACCCAUGUCUA [SSThA NP+V+V2 #8 Same Structure] | 36.4

Sequence | apparent KD of MS2 coat protein [nM]
GAGCUCGUGGACUGGCGUGCUCCGCUCCGUCGAGGACCGGUACGGCCGCCACUCGACAUGAGGAUCACCCAUGUGUGAGCUCGCU [#1 Exclusion - Tryptophan A Attempt #21 (HarryS)] | 61.1
GCUUGGGUCGCAAGGCCCUGGCGUUGCGAUACCAGCACGGUAACGUGCCCUUGGCAGCGCACAUGAGGAUCACCCAUGUGGUGCG [#1 Exclusion - Theophylline A Attempt #22 (HarryS)] | 16.5
AGGGAAUGAAUAGAAUGAGAUGACACAGAAGGAGCGCCGAUUAAGGCAGGUAGGUCGCUGACAACAUGAGGAUCACCCAUGUUAA [#11 Same State - Arginine A] | 8.73
UCGCGAUAGAGAAGGAGCGUCAACACCACAGAACAUGAGGAUCACCCAUGUGUUACUUUUAGACAGGUAGGUCGCUCUAGCGCUU [JR_Nu_ExcArginiB_Sub028] | 14
ACAUGAGGAUCACCCAUGUUAAACAGGGUGCGAGGACCGGUACGGCCGCCACUCGGACAUUAUUACGAGUGAAUGGUAACGAUGU [#13 Exclusion Tryptophan A] | 21.1
AUCGUACCUGAUGAUACCAGCAUGUGAUCAUAACAUGAGGAUCACCCAUGUAAUCAGUGAUGCCCUUGGCAGCAUGAUCGGUACA [Same State - Theophylline B (Freestyle 13)] | 45.5
AUACAUGAGGAUCACCCAUGUCACACAGAAGGAGCGGCUGUAGAGCCAGGUAGGUCGCUGUACUCAAAAUACUUCAUACUCAUGU [JR_Nu_ExcArginiA_Sub033] | 34.9
GCAUCCUAGUCGGCCGCCACUGGUACGAACACCUUCACCCGUGUGCACAUGAGGAUCACCCAUGUUAGGACCGGGACUAGGAUGC [SSTryp B #21] | 10.3
AUAAGUAAGUUUUCGUGUUUUAUUACAGAUACCAGACUAUACGUUGUCCCUUGGCAGCUGGAUUACAUGAGGAUCACCCAUGUUG [#25 Exclusion-TheophyllineA] | 19
GUUAGUUACACGGCCGCCACUCUUUGGCUUGGCUCAAGCUCCCAACAUGAGGAUCACCCAUGUCAGAGGACCGGGUGAACAACGU [theeternabot_sameState_MS2_Trp_B_28] | 56.1
UUCGUUUGCGGAAGGAGCGACGGACAUCGGUGAACGACGCACAUGAGGAUCACCCAUGUACGUCAGGUAGGUCGCCGCUAAGAGU [Tibira] | 15.5
UGACAUUGCUCAGAUACCAGACAUGAGGAUCACCCAUGUACCAAGAGUACAAAUUAAAAUGUCCCUUGGCAGCUGAGCAAUGUCU [TheoBX 7 #MS2Left #Theo2] | 25.4
GUCAGUUCUCAUGAUACCAGACCUGCCUCGGACAUGAGGAUCACCCAUGUACCCAAGCGAGUCCCUUGGCAGCAUGUGGCUUAAA [Ririatre] | 24.7
UCACGACGCAACGUGAAAUAAUAAACAGAAGGAGCGAGGAAAGCCUCAGGUAGGUCGCUGACAUGAGGAUCACCCAUGUAUUACA [Same State Arginine A GF5] | 27.1
CUCUGAGUGAGCAAUCACUCAGAGGCGGAUACCAGCGAGGUCCAUCGCCCUUGGCAGCCGAACAUGAGGAUCACCCAUGUCGGUA [#1 Same State - Theophylline A Attempt #22 (HarryS)] | 9.29
UUCUUUAAGUCGGCCGCCACUGAAACAUGAGGAUCACCCAUGUAUAUUUGUGUAUAGGUGGAUUACAGGACCGGGACUAUAGUAA [JR_ExcTryptoB_Sub023] | 15.1
AAAAUCCUACCUGAGGAUCACCCAGGUGAAGGAGCGCCCGAAAGGGCAGGUAGGUCGCACCUGAGGAUCACCCUGGUACCUAAAA [ArgAX 27 #DoubleMs2 #OpenEnded #AlternativeMS2] | 86.2
ACGACGCAUAGUGAUACCAGUAGAACAUGAGGAUCACCCAUGUCUGUGGCGCACCACCUCUGCCCUUGGCAGCACUAUGCGUCAG [SSTheo B #9] | 12.6

same assay, conditions: Eterna round: R107; input ligand: none

Sequence | apparent KD of MS2 coat protein [nM]
UGUAUGGACUGAAGGAGCGGGAAAUAAACCUGAGGAACACCCAGGUAAUAGGCGAAAGCCACCCAGGUAGGUCGCAGUCCAUACU | 13.6
